# Test results from article PMC7502549 (Journal of molecular biology, 2020).
# B1: Neurotrimin (NTM) extracellular domain, a.a. 36-311, with C-terminal linker and hexahistidine tag (domain or fragment, human, UniProt Q9P121 36-311, looked up)
# chain: ATFPKAMDNVTVRQGESATLRCTIDNRVTRVAWLNRSTILYAGNDKWCLDPRVVLLSNTQTQYSIEIQNVDVYDEGPYTCSVQTDNHPKTSRVHLIVQVSPKIVEISSDISINEGNNISLTCIATGRPEPTVTWRHISPKAVGFVSEDEYLEIQGITREQSGDYECSASNDVAAPVVRRVKVTVNYPPYISEAKGTGVPVGQKGTLQCEASAVPSAEFQWYKDDKRLIEGKKGVKVENRPFLSKLIFFNVSEHDYGNYTCVASNKLGHTNASIMLF
# modifications: N-linked glycosylation (extensive)
# Target: the molecule itself
# Test: AUC
protein,measurement,value
B1,stoichiometry N,2
